Test results: the nanobody polyreactivity screen of Harvey et al. (2022)

Assay: yeast display, Sf9 membrane polyspecificity reagent, FACS + sequencing; frameworks hold sequencing errors
How it was run: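 Using colony PCR, genes from sorted yeast display clones were amplified, then sequenced on MiSeq at 2 × 250 and filtered by CDR length. The clones had been stained with 10% biotinylated, detergent-solubilized Sf9 membrane reagent for 1 hour at 4 °C and sorted by FACS into low and high (top ~1%) gates on anti-HA and streptavidin fluorescence. Polyreactivity labels come from the gate of origin.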

Sequence | polyreactivity (PSR sort gate)
QDQLLESGGGLVQAGGSLRLSCAASGFTFYRYAMGWYRQAPGKERELVASISKSCGSTYYADSVKGRFTISRDNAKNTVYLQMNSLKPEDTAVYYCAADVDYPYGYWGQGTQVTVSS | low polyreactivity
QDQLQESGGGLEQARGSLRLSCAASGYISTFSSEMGWYRQAPGKELELVASIAPCCTTSYADSVKGRCTISRDNAKNTVYLQMNSLKPEDTSVYYCAVDYTVPASFGFRGQGTQVTVSS | high polyreactivity
QDQLVDSGGGLLQAGGSLRLSCAASGFTFWQYAMGWYRQAPGKERELVAAISGSGSSTYYADSEKGRFTISRDNAKNTVYLQMISLQPEYTAVYYCATAISRYGRFYYWGQGTQVTLSS | high polyreactivity
QDQLVDSGGGLVQAGGSLRLSCAASGRIFRGNAMGWYRQAPGKERELVAAISNSGGRTYYADSVKGRFTISRDNAKNTVYLQMNSLKPDDTAVSYCAAKAPVIFWDTRIVPGYSGYYYWGQGTQVTVSS | high polyreactivity
QDQLVDSGGGLVQAGGSLRLSCAASGRTFSPNTMGWYRQAPGKEREFVAAITASGDSTYYADSVKGRFTISRDNEKNTVYLQMNSLKPEDTAVYYCATDSNWYWGFNYWGQGTQVTVSS | low polyreactivity
QDQLVDSGGGLVQAGGSLRLSCAATGRSFRRYFMGWYIPAPGKERELVAAISYSGATTYYADSVKGRFTISRDYAKNNVYLQMNSLKKEDTAVYYFAATAPGDRYYWGQGTQVTVSS | high polyreactivity
QDQLVDSGGGLVQAGGSLRLSCGASGSTFRKYAMGWYRQAPGQEREFVAAITWSTGTTYYADSVKGRFTISRDNAKNTVYLQMNSLKREDTAVYYCAADSQPPHDLYESIEHESWGLGTQVTVSS | low polyreactivity
QDQLVEAGGGLVQAGGSLRLSCAASGFIFSRNAMGWYRQAPGKEGELVAAISSTGGITYYADSVKGRFSISRDNAKNTVYLQLTSLKPEDTAVYFCAAGFYGYARHTWYNYWGQGTQVTVSS | high polyreactivity
QDQLVESAGGLVQAGGSLRLSCAASGFTFINNDMGWYRQAPGKERELVAAISDSDGTTYYADSVKGRFTISLDHAKNTVYLQMNSLKPEDTAGYYCAADVVPTWEDEYWRQGTQVTVSS | low polyreactivity
QDQLVESAGGLVQAGGSLRLSCAASGSTSQSNAMGWYREAPGKDRELVAAISWSGTSTYYADSVKGRFTISRDNAKNTVYLQMNRLKPEDTAGYYCAADYIFEYDYWGQGTQVTVSS | low polyreactivity
QDQLVESGGCLVQAGGSLPLSCAASVFTFSNNVMGWYRQAPGQVRELVATLSKSGGSTYYAVSVKVRFTISRDKAKNSVYLQMNSLNPEATEVYYCASRFGDYGRFAYWGQGTQVSVSS | high polyreactivity
QDQLVESGGCLVQAGGSLRLSCAASGGTFLYYAMGWYRQAPGKERELVAAISRGGSTHYADSVKGRFTISRDNAKNTVYLQMNSLKPEDTAVYYCAAVRSHRKRINFYDYWGQGTQVTVSS | low polyreactivity
QDQLVESGGCLVQAGGSLRLSCAASGGTFRVYAMGWYRQAPGKERELVAAITGRGGSTYYADSVKGRFTISRDNAKNTVYLQMNSLKPDDTAVDYCNKEPELVEYDYWGQGTQVTVSS | low polyreactivity
QDQLVESGGFLVQAGGSLRLSCAASGRTFSYYDMGWYRQAPGKERELVAAISSGGSTNYADSVKARFTISRENAKNTFYLQMNSLKPEDTGVSYCATSCIWGYGRVRWVTYYYWGQGTQVTVSS | low polyreactivity
QDQLVESGGGFVQAGGSLRLSCAASGFIYDNEMGWYRQAPGKERELVASITSRGGNTYYADSVKGRFTISRDNAKNTVYLQMNSLKPEETAVYYCAARYYWGSYGPYGYWGQGTQLTVSS | high polyreactivity
QDQLVESGGGFVQAGGSLRLSCAASGFTFGSNTMGWSRQAPGKERELVAAITTSGDSTYYADSVKGRFTLSRDNAKNTVYLQMNSLKPEDTAVYDCAARRGYPRFEYWGQGTQVTVSS | high polyreactivity
QDQLVESGGGIVQAGGSLRLSCAASGFTFLYSAMGWYRQAPGKERELVAAINRSGGRTYYADSVKGRFTISRDNAKNTVYLQMNSLKPEDTAVYYCATDTYFRSSVVFRYDYWGQGTQVTVSS | high polyreactivity
QDQLVESGGGIVQAGGSLRLSCAASGSTFWHNVMGWYRQAPGKERELVAAISTAGSSTYYADSVKGRFTISRDHAKNTVYLQMNSLKPEDTAVYYCAAQWPKSKYGYWGQGTQVTVSS | high polyreactivity
QDQLVESGGGLDQAGCTLRLSCAASVGTFRYYAMGWYRQAPGKERELVASISSGGSTNYADSVKGRFTISRDNAKNTVYLQMNSLKPEDTAVYYCNADPRRPVTSYDYWGQGTQVTVSS | low polyreactivity
QDQLVESGGGLDQAGGSLRLSCAAYGSTFGYYALGWSRQAPGKERELVAAISWSGSNTYYADSVKGRFTISRDNAKNTVYLQMNSLTPEDTAVYYCAAVYRGSRAWGYDYWGQGTQVTVSS | high polyreactivity
QDQLVESGGGLLQAGASLRLSCAASGFIFDSYAIGWDRQAPGKERELVAAITSSGSSTYYADSVKGRFTISRDNAKNTVYLQMNSLKPEDTAVYYCNAVYSATVVAWRFGYWGQGTQVTVSS | high polyreactivity

Sequence | polyreactivity (PSR sort gate)
QDQLVESGGGLVQAGASLRLSCAASGFIFVFNAMGWYRQAPGKERELVAAINGGDITNYADSVKGRFTISRDNAKNTVYLQMTSLKPEDTAVYYCAADGEDSLWTGYDYDYWGQGTQVTVSS | low polyreactivity
QDQLVESGGGLVQAGASLRLSCAASGSIFYHNTMGWYRQAPGKERELLTYYADSVKRRFTISRDNAKNTVYLQMNSLKPEDTAVYYCAASPVSRTGPGDYDYWGQGTQVTVSS | low polyreactivity
QDQLVESGGGLVQAGCSLRLSCDASGSTSYGYAMGWYRQAPGKERELVASISYSGSSTYYADSVKGRFTFSRDNAKNTVYLQMNSLKPEDTAVYYCNAKVYPCVGPKHRYDYWGQCTQVTVSS | low polyreactivity
QDQLVESGGGLVQAGGILRLICAASGLTFASYGMGWYRQAPGKERELVAAISSSGGITYYADSVKGRFTISRDNAKNTVYLQMNSLKPEDTAVYYCAAAKRSGYTGFKYYYWGQGTQVTVSS | high polyreactivity
QDQLVESGGGLVQAGGNLRLSCAASGSIFSDYTIGWYRQAPGKERELVADITLSSGSTYYADSVKGRFTISRDNAKNTVYLQMNSLKPEDTAVYYCAADGWYYFRSGDFEYDYWGHGTQVTVSS | low polyreactivity
QDQLVESGGGLVQAGGRLRLICAAAGLIFVSNAMGWYRQAPGKERELFASISWSGGSTYYADSVKGRFTISRDNAKNTVYLQMNSLKPEDTAVYYCAAAKYVTYLSIYYYWGQGTQVTVSS | high polyreactivity
QDQLVESGGGLVQAGGRLRLSCAASGFIFWLYAMGWYRQAPGKERELVASINWSGGDTYYADSVKGRFTISRDNAKNTVYLQMNSLKPEDTAVYYCAADWSNLGAYDYWGQGTQVTVSS | low polyreactivity
QDQLVESGGGLVQAGGRLRLSCAASGRTFSSYAMGWYRQAPGKERELVAAISRRGSSTFYADSVKGRFTISRDNAKNTVYLQMNSLKPEDTAVYYCNADLSGQTRYDYWVQGTQVTVSS | high polyreactivity
QDQLVESGGGLVQAGGRLRLSCAAYGRIFRRYAMGWYRQAPGKEREFVAAISSGGSTYYADSVKVRFTISRDNAKKYRLFTAEQPETGRYRGLLLRCVRYDVNVYDYWGQGTQVTVSS | low polyreactivity
QDQLVESGGGLVQAGGRLRLTCAASGAIFSNYAMGWYRQAPGKERELLAAITNGVSTNYAVSVKGRLTISRDNAKNTVFLQMNSLKPEDTAVYYCAAVGYRATYRVGGYLRYYYWGQGTQVTVSS | high polyreactivity
QDQLVESGGGLVQAGGSHRLSCAASGRTFYLYAMGWYRHAPGKERELVAGISYRGSRTYYADSVKVRFTISRDYEKNTVYLQMNSLKPEDTAVYYCATPAGQAAYDYWGQGTQVTVSS | high polyreactivity
QDQLVESGGGLVQAGGSLLLSCAASGIIITGNAMVWYRQAPGKERELVAGITGSGGNTYYADCVKGRYTISRDNAKNTFYLQMNSLKPEDTGVYYCAARRHIFLLIIWSGRVDYWGQGTQVTVSS | low polyreactivity
QDQLVESGGGLVQAGGSLRISCAASGRIFRRNTMGRYRQAPGKERELVADINSSDGDTYYADSVKGRFTISRDNAKNTVYLQMNSLKPEDTAVYYCAADLSPLGEMDYWGQGTQVTVSS | low polyreactivity
QDQLVESGGGLVQAGGSLRLICAASGRTFITYSMGWYRQAPGKERELVAAISWNGGTTYYADSVKGRFTISRDNAKNTVYIQMNSLKPEVTAVYYCAGYRWYSAARMGYWGQGTQVTVSS | high polyreactivity
QDQLVESGGGLVQAGGSLRLICAASGSIFDFYTMGWYRQAPGKERELVAAITYSGGRTYYADSVKGRFTISRDNAKNTVYLQMNSLKPEDTAVYYCAASTGSSAYDDYWGQGTQVTVSS | high polyreactivity
QDQLVESGGGLVQAGGSLRLICAASGSIFSKKAMGLYRQAPGKERELVAAISASGASTYYADSVKGRFTISRDNEKNTVYLQMNSLKPEDTSVYYCNADVSGVSSYGLSYEFYYWGQGTQVTVSS | low polyreactivity
QDQLVESGGGLVQAGGSLRLSCAACGIMFGKYAMGWYREAPGKERELVAAITWSGGRTYYADSVTGRFTISRANAKNTVYLPMNSLKPEDTAVYYCAADVKYGYDWGQGTQVTVSS | high polyreactivity
QDQLVESGGGLVQAGGSLRLSCAASGFTFAENAMGWYRQATGKEGELVAAISGSGGSTYYADSVKGRFTISRDNAKNTVYLQMNSLKPEDTAVYYCAADKPRPQYTDDDYWGQGTQVTVSS | high polyreactivity
QDQLVESGGGLVQAGGSLRLSCAASGFTFARNGMGWYRQAPVKEREFVAAITRSGGRTYYADSVKGRFTISRDNAKNTVYLQMNSLKPQDTAVYYCAAATSYGKSEYDYWGQGTQVTVSS | high polyreactivity
QDQLVESGGGLVQAGGSLRLSCAASGFTFDRYAMGWYRQAPGKERELVAAITSSGGSTYYADSVKGRFTISRDNAKNTVYLQMNSLKPEDTAVYYCAVAYSSHTSYYSWGQSTQVTVSS | low polyreactivity
